Experimental data: the supplement of paper PMC7877785
± gives the uncertainty stated by the source.

Experiment: self-splicing fitness, log relative to wild type (ln ratio); higher = more splicing; Tetrahymena group I intron in knt gene, E. coli kanamycin selection, DiMSum; sequences stand for … in CUCUCU…GGAGGGAAAAGUUAUCAGGCAUGCACCUGGUAGCUAGUCUUUAAACCAAUAGAUUGCAUCGGUUUAAAAGGCAAGACCGUCAAAUUGCGGGAAAGGGGUCAACAGCCGUUCAGUACCAAGUCUCAGGGGAAACUUUGAGAUGGCCUUGCAAAGGGUAUGGUAAUAAGCUGACGGACAUGGUCCUAACCACGCAGCCAAGUCCUAAGUCAACAGAUCUUCUGUUGAUAUGGAUGCAGUUCACAGACUAAAUGUCGGUCGGGGAAGAUGUAUUCUUCUCAUAAGAUAUAGUCGGACCUCUCCUUAAUGGGAGCUAGCGGAUGAAGUGAUGCAACACUGGAGCCGCUGGGAACUAAUUUGUAUGCGAAAGUAUAUUGAUUAGUUUUGGAGUACUCGUGGUCG
Procedure, shortened: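 The eight P1ex-region nucleotides of an intron in the knt kanamycin-resistance gene on pET-22b(+) were all randomised and the library put into E. coli BL21(DE3). Six replicate transformations were grown overnight at 37°C or 30°C on LB agar with or without 25 μg/mL kanamycin, together with 100 μg/mL carbenicillin, 50 μM IPTG and 0.2% rhamnose. Colonies were pooled and amplicon-sequenced on an Illumina HiSeq 2500. Fitness from DiMSum is the error-weighted combination of wild-type-normalised replicate fold changes, kanamycin over none.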

Row | Sequence | self-splicing fitness (ln) (30 °C) | self-splicing fitness (ln) (37 °C)
1 | CUAAAGCAAUAUUACGAGAG | -1.13 ± 0.075 | -0.601 ± 0.099
2 | UAUCAGCAAUAUUACGUCAA | -0.73 ± 0.092 | -0.445 ± 0.11
3 | CCAAAGCAAUAUUACGUAAG | -0.334 ± 0.049 | 0.53 ± 0.071
4 | GGGUAGCAAUAUUACGGAGU | -2.36 ± 0.22 | -1.21 ± 0.2
5 | GUAAAGCAAUAUUACGCAUC | -1.36 ± 0.11 | -0.97 ± 0.15
6 | AAAUAGCAAUAUUACGGCAU | -0.403 ± 0.093 | -0.183 ± 0.13
7 | GUUAAGCAAUAUUACGCCCG | -0.342 ± 0.39 | -1.05 ± 0.45
8 | GAGGAGCAAUAUUACGAUCU | -0.772 ± 0.12 | -0.217 ± 0.12
9 | GAGUAGCAAUAUUACGAUCU | -1.59 ± 0.18 | -0.479 ± 0.16
10 | AUGGAGCAAUAUUACGUAAG | -2.69 ± 0.2 | -0.735 ± 0.17
11 | AUUGAGCAAUAUUACGCAUU | -2.64 ± 0.23 | -1.49 ± 0.18
12 | GGGUAGCAAUAUUACGUCCG | -0.212 ± 0.15 | -0.15 ± 0.19
13 | AAAAAGCAAUAUUACGCACU | 0.146 ± 0.079 | 0.322 ± 0.083
14 | AUAAAGCAAUAUUACGCUGA | -1.27 ± 0.082 | -0.907 ± 0.15
15 | ACUGAGCAAUAUUACGGGCA | -2.07 ± 0.14 | -1.08 ± 0.14
16 | CAUGAGCAAUAUUACGCUAU | -3.46 ± 0.3 | -1.99 ± 0.21
17 | UCUUAGCAAUAUUACGAAAG | -2.07 ± 0.35 | -1.12 ± 0.34
18 | GUCAAGCAAUAUUACGUAUA | -2.31 ± 0.13 | -0.798 ± 0.14
19 | AGUUAGCAAUAUUACGACAA | -0.124 ± 0.18 | -0.562 ± 0.18
20 | GCUAAGCAAUAUUACGCUCG | -0.473 ± 0.094 | -0.832 ± 0.13
21 | AAACAGCAAUAUUACGGUUU | -3.64 ± 0.11 | -2.51 ± 0.12
22 | CAGAAGCAAUAUUACGCAUC | -4.43 ± 0.37 | -2.37 ± 0.14
23 | GCUAAGCAAUAUUACGCGAG | -2.6 ± 0.13 | -1.18 ± 0.14
24 | GGCUAGCAAUAUUACGGGCC |  | -1.98 ± 0.42
25 | UAAAAGCAAUAUUACGACCU | -0.4 ± 0.085 | 0.0792 ± 0.098
26 | UGGUAGCAAUAUUACGCAGA | -2.45 ± 0.16 | -0.684 ± 0.1

Row | Sequence | self-splicing fitness (ln) (30 °C) | self-splicing fitness (ln) (37 °C)
27 | CAUGAGCAAUAUUACGGGAA |  | -1.66 ± 0.25
28 | CUCUAGCAAUAUUACGAUUG | -1.48 ± 0.091 | -1.24 ± 0.12
29 | GUGAAGCAAUAUUACGCCCU | -0.176 ± 0.13 | 0.602 ± 0.15
30 | AAGUAGCAAUAUUACGCGUA | -2.15 ± 0.13 | -1.29 ± 0.14
31 | AGCGAGCAAUAUUACGGCGC | -2.72 ± 0.22 | -1.98 ± 0.2
32 | GUCGAGCAAUAUUACGUGGA |  | -2.46 ± 0.26
33 | GCUAAGCAAUAUUACGCUCU | -1.11 ± 0.13 | 0.486 ± 0.15
34 | UAGAAGCAAUAUUACGUGGG | -3.09 ± 0.18 | -2 ± 0.19
35 | UAUAAGCAAUAUUACGACGG | -0.907 ± 0.12 | 0.474 ± 0.18
36 | UGAGAGCAAUAUUACGCACU | -3.11 ± 0.32 | -2.02 ± 0.21
37 | CUUCAGCAAUAUUACGAGCC | -2.29 ± 0.21 | -1.59 ± 0.3
38 | GUGCAGCAAUAUUACGAGGU | -3.63 ± 0.3 | -2.47 ± 0.21
39 | GCAUAGCAAUAUUACGUUGU | -3.21 ± 0.17 | -2.74 ± 0.19
40 | AGCUAGCAAUAUUACGAUUU | -0.0195 ± 0.06 | 0.214 ± 0.086
41 | CCAGAGCAAUAUUACGCGGG | -3.33 ± 0.44 | 
42 | GACCAGCAAUAUUACGAUAC | -0.984 ± 0.056 | -0.634 ± 0.066
43 | CAGGAGCAAUAUUACGGCCU | -2.22 ± 0.24 | -1.42 ± 0.31
44 | GGUUAGCAAUAUUACGCAAG | -2.45 ± 0.16 | -1.01 ± 0.12
45 | GGCUAGCAAUAUUACGGGGC | -3.67 ± 0.47 | -2.08 ± 0.28
46 | GUAUAGCAAUAUUACGUGAC | -2.65 ± 0.13 | -1.65 ± 0.14
47 | GGAUAGCAAUAUUACGACUA | -1.37 ± 0.42 | -1.11 ± 0.28
48 | UGGUAGCAAUAUUACGGUCA | -0.695 ± 0.097 | -0.176 ± 0.1
49 | UCCAAGCAAUAUUACGUUAG | -1.97 ± 0.13 | -2.91 ± 0.28
50 | GUUCAGCAAUAUUACGCCCU | -0.106 ± 0.16 | 0.232 ± 0.19
51 | CUCUAGCAAUAUUACGUCAU | -2.83 ± 0.4 | -4.18 ± 0.39
52 | UUACAGCAAUAUUACGGGCA | -1.01 ± 0.1 | -0.657 ± 0.11

Row | Sequence | self-splicing fitness (ln) (30 °C) | self-splicing fitness (ln) (37 °C)
53 | AAACAGCAAUAUUACGGUUG | -1.99 ± 0.061 | -0.629 ± 0.075
54 | AGUUAGCAAUAUUACGCCCA | -1.44 ± 0.32 | -0.867 ± 0.33
55 | AUUAAGCAAUAUUACGGAGA | -2.53 ± 0.19 | -3.25 ± 0.32
56 | GACAAGCAAUAUUACGUGCU | -2.93 ± 0.082 | -1.82 ± 0.078
57 | GUUAAGCAAUAUUACGUAUC | -1.79 ± 0.1 | -1.46 ± 0.14
58 | CCUCAGCAAUAUUACGAGCC | -0.962 ± 0.25 | -0.207 ± 0.41
59 | GUUAAGCAAUAUUACGCGCC | -2.44 ± 0.2 | -1.56 ± 0.16
60 | CAAUAGCAAUAUUACGACAG | -0.279 ± 0.077 | 0.138 ± 0.094
61 | GUAAAGCAAUAUUACGGUGU | -1.5 ± 0.056 | -0.647 ± 0.07
62 | CACAAGCAAUAUUACGUAUA | -2.66 ± 0.13 | -2.67 ± 0.16
63 | AGGCAGCAAUAUUACGCAUG | -2.69 ± 0.17 | -0.809 ± 0.17
64 | GGUAAGCAAUAUUACGAGGA |  | -1.84 ± 0.45
65 | AUUCAGCAAUAUUACGCACG | -0.783 ± 0.16 | -0.413 ± 0.16
66 | CCUAAGCAAUAUUACGGUGG | -2.76 ± 0.11 | -2.03 ± 0.14
67 | ACAGAGCAAUAUUACGAUCG | -2.71 ± 0.18 | -1.88 ± 0.23
68 | CGGCAGCAAUAUUACGUGAU | -3.11 ± 0.12 | -1.57 ± 0.13
69 | GCUUAGCAAUAUUACGAUGU | -0.306 ± 0.083 | -0.00189 ± 0.11
70 | CCGUAGCAAUAUUACGAGUC | -2.86 ± 0.23 | 
71 | AAAAAGCAAUAUUACGUGGU | -3.26 ± 0.11 | -2.74 ± 0.12
72 | GUCCAGCAAUAUUACGCGGG | -4.23 ± 0.26 | -2.92 ± 0.24
73 | AUUGAGCAAUAUUACGGUCC |  | -1.58 ± 0.22
74 | GUCUAGCAAUAUUACGACCA | -0.99 ± 0.26 | -2.1 ± 0.29
75 | AAGCAGCAAUAUUACGCCAG | -2.67 ± 0.36 | -1.43 ± 0.41
76 | UAGUAGCAAUAUUACGGCUU | -0.242 ± 0.11 | 0.187 ± 0.13
77 | AAAUAGCAAUAUUACGGAUU | -0.612 ± 0.074 | -1.1 ± 0.09
